Source: publication PMC8924275, “A peroxisomal heterodimeric enzyme is involved in benzaldehyde synthesis in plants” (Nature Communications, 2022)
Blank lines part the entries; values can stand above or below the molecule they belong to.

Key:
[1] = target: T1, AtBS (Arabidopsis thaliana, UniProt F4JFB8+Q9SG99); assay: HPLC-DAD detection of benzaldehyde, Michaelis-Menten fit; assay type: biochemical; conditions: 4 mM NADPH; 50 mM Bis-Tris pH 6.5; 28 °C; α:β 1:1
T1 construct: gene SDRD; CDS of both subunits from flower cDNA in pMAL-c5X (MBP-tagged), E. coli; amylose resin after 1:1 mixing; heterodimer
T1 sequence (F4JFB8 1-280): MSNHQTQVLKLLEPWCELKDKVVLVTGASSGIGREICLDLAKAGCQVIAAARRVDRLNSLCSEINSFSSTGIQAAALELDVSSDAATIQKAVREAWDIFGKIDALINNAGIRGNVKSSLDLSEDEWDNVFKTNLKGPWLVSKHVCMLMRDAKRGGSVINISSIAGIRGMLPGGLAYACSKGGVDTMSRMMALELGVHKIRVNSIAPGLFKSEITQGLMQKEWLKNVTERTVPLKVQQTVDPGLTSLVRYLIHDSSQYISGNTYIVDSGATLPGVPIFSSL
T1 sequence (Q9SG99 1-266): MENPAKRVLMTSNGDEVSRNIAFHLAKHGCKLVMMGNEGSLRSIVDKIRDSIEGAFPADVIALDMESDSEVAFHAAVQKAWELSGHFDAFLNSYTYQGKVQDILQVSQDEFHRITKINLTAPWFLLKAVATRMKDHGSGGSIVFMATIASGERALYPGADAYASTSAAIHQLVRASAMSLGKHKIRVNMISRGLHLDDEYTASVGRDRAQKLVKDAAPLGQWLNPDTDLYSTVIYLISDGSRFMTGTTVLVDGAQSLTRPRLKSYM
From the text: HPLC-DAD detection of benzaldehyde, Michaelis-Menten fit on AtBS

[2] = test system: CC(C)(COP(=O)(O)OP(=O)(O)OC[C@H]1O[C@@H](n2cnc3c(N)ncnc32)[C@H](O)[C@@H]1OP(=O)(O)O)[C@@H](O)C(=O)NCCC(=O)NCCSC(=O)c1ccccc1; assay: purified protein; conditions: 4 mM NADPH, 50 mM Bis-Tris pH 6.5, 28 °C, α:β 1:1
From the text: HPLC-DAD detection of benzaldehyde, Michaelis-Menten fit on PdBS

[3] = target: purified recombinant Arabidopsis thaliana benzaldehyde synthase β subunit (AtBSβ) (Arabidopsis thaliana); assay: SEC; purified recombinant proteins at ~1 mg/mL on Superdex 200 Increase 10/300 GL in phosphate-buffered saline
[4] = target: purified recombinant PhBSβ (from pMAL-c5X, MBP tag) (Petunia hybrida); assay: as above
[5] = target: purified recombinant tomato (Solanum lycopersicum) benzaldehyde synthase α subunit (SlBSα) (Solanum lycopersicum (tomato))
[6] = target: purified recombinant Arabidopsis thaliana benzaldehyde synthase α subunit (AtBSα) (Arabidopsis thaliana)

Km [1]: 243 ± 28.2 µM
Molecule: CC(C)(COP(=O)(O)OP(=O)(O)OC[C@H]1O[C@@H](n2cnc3c(N)ncnc32)[C@H](O)[C@@H]1OP(=O)(O)O)[C@@H](O)C(=O)NCCC(=O)NCCSC(=O)c1ccccc1 [benzoyl-CoA]

Molecule: PdBS (Prunus dulcis)
Km [2]: 629.4 ± 67.7 µM | Vmax [2]: 2.12 µmol/min/mg | kcat [2]: 5.26 ± 0.2 s⁻¹ | kcat/Km [2]: 8400 ± 1000 M⁻¹ s⁻¹

stoichiometry N [3]: 4
Molecule: purified recombinant Arabidopsis thaliana benzaldehyde synthase β subunit (AtBSβ) (natural protein)

stoichiometry N [4]: 4 | apparent BS activity of the cross-species hybrid SlBSα-PhBSβ compared with SlBS (fold lower than SlBS) [5]: 6.5
Molecule: purified recombinant PhBSβ (from pMAL-c5X, MBP tag) (natural protein)

apparent BS activity of the cross-species hybrid SlBSα-PdBSβ compared with SlBS (fold higher than SlBS) [5]: 2.7 | apparent BS activity of the cross-species hybrid AtBSα-PdBSβ relative to AtBS (fold higher than AtBS) [6]: 7.8
Molecule: purified recombinant almond (Prunus dulcis) benzaldehyde synthase β subunit (PdBSβ) (natural protein)

apparent BS activity of the cross-species hybrid AtBSα-SlBSβ relative to AtBS (fold higher than AtBS) [6]: 4.6
Molecule: purified recombinant tomato (Solanum lycopersicum) benzaldehyde synthase β subunit (SlBSβ) (natural protein)
